Test results taken from patent publication US20220411483A1 (Chugai, published 2022).

Assays:
FcgRIIb = molecular target: T1, FcgRIIb (human, UniProt P31994 43-217); test: SPR, amount bound per captured antibody
T1 construct: extracellular domain; also called FcγRIIb
T1 sequence (looked up): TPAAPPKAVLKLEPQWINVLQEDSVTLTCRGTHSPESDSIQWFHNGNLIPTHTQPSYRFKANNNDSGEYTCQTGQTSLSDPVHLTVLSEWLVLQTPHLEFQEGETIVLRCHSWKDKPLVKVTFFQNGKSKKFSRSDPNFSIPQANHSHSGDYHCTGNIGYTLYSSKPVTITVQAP

FcgRIIaR = molecular target: T2, FcgRIIaR (human, UniProt P12318 34-217); test: SPR, amount bound per captured antibody
T2 construct: extracellular domain; also called FcγRIIa R type; FcγRIIa (R type)
T2 sequence (looked up): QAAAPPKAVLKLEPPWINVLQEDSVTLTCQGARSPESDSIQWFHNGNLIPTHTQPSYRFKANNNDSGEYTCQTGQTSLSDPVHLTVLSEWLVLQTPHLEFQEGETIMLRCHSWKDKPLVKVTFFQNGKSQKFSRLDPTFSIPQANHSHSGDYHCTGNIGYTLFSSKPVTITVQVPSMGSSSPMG

[1] = molecular target: T3, human FcγRIIIa V type extracellular domain with C-terminal His tag (human, UniProt P08637 17-208); test: SPR, KD of IL6R-G1d/IL6R-L divided by KD of variant
T3 construct: extracellular domain; also called FcgRIIIaV

[2] = molecular target: T4, human FcγRIa extracellular domain with C-terminal His tag (human, UniProt P12314 16-292); test: as above
T4 construct: Whole entry named; also called FcgRIa

[3] = molecular target: T5, human FcγRIIb extracellular domain with C-terminal His tag (human, UniProt P31994 43-217); test: as above
T5 construct: extracellular domain; also called FcgRIIb
T5 sequence (looked up): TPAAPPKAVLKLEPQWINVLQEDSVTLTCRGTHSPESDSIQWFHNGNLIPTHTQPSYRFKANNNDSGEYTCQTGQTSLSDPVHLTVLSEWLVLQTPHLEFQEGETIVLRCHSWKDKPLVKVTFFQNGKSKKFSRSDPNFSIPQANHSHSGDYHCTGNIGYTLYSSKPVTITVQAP

[4] = molecular target: T6, human FcγRIIa H type extracellular domain with C-terminal His tag (human, UniProt P12318 34-217); test: as above
T6 construct: extracellular domain; also called FcgRIIaH
T6 sequence (looked up): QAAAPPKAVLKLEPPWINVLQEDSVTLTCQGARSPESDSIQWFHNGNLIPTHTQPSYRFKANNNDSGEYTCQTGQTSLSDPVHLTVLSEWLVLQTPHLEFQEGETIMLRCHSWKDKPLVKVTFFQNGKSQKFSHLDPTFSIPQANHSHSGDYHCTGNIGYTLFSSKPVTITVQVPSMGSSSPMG

[5] = molecular target: T7, human FcγRIIa R type extracellular domain with C-terminal His tag (human, UniProt P12318 34-217); test: as above
T7 construct: extracellular domain; also called FcgRIIaR
T7 sequence (looked up): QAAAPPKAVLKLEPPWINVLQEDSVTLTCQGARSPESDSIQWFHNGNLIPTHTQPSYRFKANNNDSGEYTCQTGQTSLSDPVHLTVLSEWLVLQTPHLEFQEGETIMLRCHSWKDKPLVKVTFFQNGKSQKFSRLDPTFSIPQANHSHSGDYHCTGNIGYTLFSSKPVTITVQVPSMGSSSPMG

[6] = molecular target: T4, human FcγRIa extracellular domain with …; test: SPR, antibody captured, FcgR analyte
[7] = molecular target: T5, human FcγRIIb extracellular domain with …; test: SPR, antibody captured, FcgR analyte
[8] = molecular target: T7, human FcγRIIa R type extracellular …; test: SPR, antibody captured, FcgR analyte

T4 sequence (P12314 16-292): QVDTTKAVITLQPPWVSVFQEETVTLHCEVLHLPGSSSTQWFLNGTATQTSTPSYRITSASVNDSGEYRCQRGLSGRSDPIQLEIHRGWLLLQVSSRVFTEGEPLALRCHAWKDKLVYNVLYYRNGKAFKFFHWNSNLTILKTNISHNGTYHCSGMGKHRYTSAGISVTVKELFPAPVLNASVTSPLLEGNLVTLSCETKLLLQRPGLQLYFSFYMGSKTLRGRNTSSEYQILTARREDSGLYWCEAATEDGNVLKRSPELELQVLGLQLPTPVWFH
T3 sequence (P08637 17-208 F176V): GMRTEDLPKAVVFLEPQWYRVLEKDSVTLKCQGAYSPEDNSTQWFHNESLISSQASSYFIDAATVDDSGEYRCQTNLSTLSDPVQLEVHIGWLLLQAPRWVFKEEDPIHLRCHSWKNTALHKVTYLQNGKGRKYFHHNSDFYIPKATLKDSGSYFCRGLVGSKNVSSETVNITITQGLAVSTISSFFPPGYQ

B1: IL6R-P606/IL6R-L (antibody, human IgG1, kappa)
heavy: QVQLQESGPGLVKPSETLSLTCAVSGHSISHDHAWSWVRQPPGEGLEWIGFISYSGITNYNPSLQGRVTISRDNSKNTLYLQMNSLRAEDTAVYYCARSLARTTAMDYWGEGTLVTVSSASTKGPSVFPLAPSSKSTSGGTAALGCLVKDYFPEPVTVSWNSGALTSGVHTFPAVLQSSGLYSLSSVVTVPSSSLGTQTYICNVNHKPSNTKVDKKVEPKSCDKTHTCPPCPAPDLLGGDKVFLFPPKPKDTLMISRTPEVTCVVIDVAEEDGEVKFNWYVDGVEVHNAKTKPREEQYNSTYRVVSVLTVLHQDWLNGKEYKCKVSNKALPAPIEKTISKAKGQPREPQVYTLPPSRDELTKNQVSLTCLVKGFYPSDIAVEWESNGQPENNYKTTPPVLDSDGSFFLYSKLTVDKSRWQQGNVFSCSVMHEALHNHYTQKSLSLSP
light: not shown
Q: What does the source list for B1?
A: Relative FcgRIIb-binding Activity (FcgRIIb): 7.7 IL6R-G1d/IL6R-L=100; Relative FcgRIIaR-binding Activity (FcgRIIaR): 4.8 IL6R-G1d/IL6R-L=100

B2: IL6R-P607/IL6R-L (antibody, human IgG1, kappa)
heavy: QVQLQESGPGLVKPSETLSLTCAVSGHSISHDHAWSWVRQPPGEGLEWIGFISYSGITNYNPSLQGRVTISRDNSKNTLYLQMNSLRAEDTAVYYCARSLARTTAMDYWGEGTLVTVSSASTKGPSVFPLAPSSKSTSGGTAALGCLVKDYFPEPVTVSWNSGALTSGVHTFPAVLQSSGLYSLSSVVTVPSSSLGTQTYICNVNHKPSNTKVDKKVEPKSCDKTHTCPPCPAPDLLGDDKVFLFPPKPKDTLMISRTPEVTCVVIDVAEEDGEVKFNWYVDGVEVHNAKTKPREEQDNSTYRVVSVLTVLHQDWLNGKEYKCKVSNKALPRPIEKTISKAKGQPREPQVYTLPPSRDELTKNQVSLTCLVKGFYPSDIAVEWESNGQPENNYKTTPMVLDSDGSFFLYSKLTVDKSRWQQGNVFSCSVMHEALHNHYTQKSLSLSP
light: not shown
Q: B2 was tested. Which “Relative FcgRIIb-binding Activity” value (FcgRIIb) did it give?
A: Its value is 21.8 IL6R-G1d/IL6R-L=100.

Q: What about the “Relative FcgRIIaR-binding Activity” value (FcgRIIaR) of the same binder?
A: The value was 6.1 IL6R-G1d/IL6R-L=100.

B3: IL6R-P609/IL6R-L (antibody, human IgG1, kappa)
heavy: QVQLQESGPGLVKPSETLSLTCAVSGHSISHDHAWSWVRQPPGEGLEWIGFISYSGITNYNPSLQGRVTISRDNSKNTLYLQMNSLRAEDTAVYYCARSLARTTAMDYWGEGTLVTVSSASTKGPSVFPLAPSSKSTSGGTAALGCLVKDYFPEPVTVSWNSGALTSGVHTFPAVLQSSGLYSLSSVVTVPSSSLGTQTYICNVNHKPSNTKVDKKVEPKSCDKTHTCPPCPAPDALGGDSVFLFPPKPKDTLMISRTPEVTCVVIDVAEEDGEVKFNWYVDGVEVHNAKTKPREEQYNSTYRVVSVLTVLHQDWLNGKEYKCKVSNKALPAPIEKTISKAKGQPREPQVYTLPPSRDELTKNQVSLTCLVKGFYPSDIAVEWESNGQPENNYKTTPPVLDSDGSFFLYSKLTVDKSRWQQGNVFSCSVMHEALHNHYTQKSLSLSP
light: not shown
Q: With B3 as the binder, how does the “Relative FcgRIIb-binding Activity” value (FcgRIIb) read?
A: Its value is 178 IL6R-G1d/IL6R-L=100.

Q: And the “Relative FcgRIIaR-binding Activity” value (FcgRIIaR)?
A: Its value is 82.6 IL6R-G1d/IL6R-L=100.

B4: IL6R-P611/IL6R-L (antibody, human IgG1, kappa)
heavy: QVQLQESGPGLVKPSETLSLTCAVSGHSISHDHAWSWVRQPPGEGLEWIGFISYSGITNYNPSLQGRVTISRDNSKNTLYLQMNSLRAEDTAVYYCARSLARTTAMDYWGEGTLVTVSSASTKGPSVFPLAPSSKSTSGGTAALGCLVKDYFPEPVTVSWNSGALTSGVHTFPAVLQSSGLYSLSSVVTVPSSSLGTQTYICNVNHKPSNTKVDKKVEPKSCDKTHTCPPCPAPDALGDDSVFLFPPKPKDTLMISRTPEVTCVVIDVAEEDGEVKFNWYVDGVEVHNAKTKPREEQDNSTYRVVSVLTVLHQDWLNGKEYKCKVSNKALPRPIEKTISKAKGQPREPQVYTLPPSRDELTKNQVSLTCLVKGFYPSDIAVEWESNGQPENNYKTTPMVLDSDGSFFLYSKLTVDKSRWQQGNVFSCSVMHEALHNHYTQKSLSLSP
light: not shown
Q: Which results are given for B4?
A: Relative FcgRIIb-binding Activity (FcgRIIb): 183 IL6R-G1d/IL6R-L=100; Relative FcgRIIaR-binding Activity (FcgRIIaR): 107 IL6R-G1d/IL6R-L=100

B5: IL6R-P613/IL6R-L (antibody, human IgG1, kappa)
heavy: QVQLQESGPGLVKPSETLSLTCAVSGHSISHDHAWSWVRQPPGEGLEWIGFISYSGITNYNPSLQGRVTISRDNSKNTLYLQMNSLRAEDTAVYYCARSLARTTAMDYWGEGTLVTVSSASTKGPSVFPLAPSSKSTSGGTAALGCLVKDYFPEPVTVSWNSGALTSGVHTFPAVLQSSGLYSLSSVVTVPSSSLGTQTYICNVNHKPSNTKVDKKVEPKSCDKTHTCPPCPAPDLAGGDSVFLFPPKPKDTLMISRTPEVTCVVIDVAEEDGEVKFNWYVDGVEVHNAKTKPREEQYNSTYRVVSVLTVLHQDWLNGKEYKCKVSNKALPAPIEKTISKAKGQPREPQVYTLPPSRDELTKNQVSLTCLVKGFYPSDIAVEWESNGQPENNYKTTPPVLDSDGSFFLYSKLTVDKSRWQQGNVFSCSVMHEALHNHYTQKSLSLSP
light: not shown
Q: Which results are given for B5?
A: Relative FcgRIIb-binding Activity (FcgRIIb): 120 IL6R-G1d/IL6R-L=100; Relative FcgRIIaR-binding Activity (FcgRIIaR): 61.2 IL6R-G1d/IL6R-L=100

B6: IL6R-P637/IL6R-L (antibody, human IgG1, kappa)
heavy: QVQLQESGPGLVKPSETLSLTCAVSGHSISHDHAWSWVRQPPGEGLEWIGFISYSGITNYNPSLQGRVTISRDNSKNTLYLQMNSLRAEDTAVYYCARSLARTTAMDYWGEGTLVTVSSASTKGPSVFPLAPSSKSTSGGTAALGCLVKDYFPEPVTVSWNSGALTSGVHTFPAVLQSSGLYSLSSVVTVPSSSLGTQTYICNVNHKPSNTKVDKKVEPKSCDKTHTCPPCPAPDLLGGDSVFLFPPKPKDTLMISRTPEVTCVVIDVYEEDGEVKFNWYVDGVEVHNAKTKPREEQYNSTYRVVSVLTVLHQDWLNGKEYKCKVSNKALPAPIEKTISKAKGQPREPQVYTLPPSRDELTKNQVSLTCLVKGFYPSDIAVEWESNGQPENNYKTTPPVLDSDGSFFLYSKLTVDKSRWQQGNVFSCSVMHEALHNHYTQKSLSLSP
light: not shown
Q: How did the “Relative FcgRIIb-binding Activity” value (FcgRIIb) turn out when B6 was run?
A: Its value is 55.5 IL6R-G1d/IL6R-L=100.

B7: IL6R-P783/IL6R-L (antibody, human IgG1, kappa)
heavy: QVQLQESGPGLVKPSETLSLTCAVSGHSISHDHAWSWVRQPPGEGLEWIGFISYSGITNYNPSLQGRVTISRDNSKNTLYLQMNSLRAEDTAVYYCARSLARTTAMDYWGEGTLVTVSSASTKGPSVFPLAPSSKSTSGGTAALGCLVKDYFPEPVTVSWNSGALTSGVHTFPAVLQSSGLYSLSSVVTVPSSSLGTQTYICNVNHKPSNTKVDKKVEPKSCDKTHTCPPCPAPELLGDDSVFLFPPKPKDTLMISRTPEVTCVVVDVSHEDPEVKFNWYVDGVEVHNAKTKPREEQYNSTYRVVSVLTVLHQDWLNGKEYKCKVSNKGLPSSIEKTISKAKGQPREPQVYTLPPSRDELTKNQVSLTCLVKGFYPSDIAVEWESNGQPENNYKTTPPVLDSDGSFFLYSKLTVDKSRWQQGNVFSCSVMHEALHNHYTQKSLSLSP
light: not shown
Q: Which results are given for B7?
A: Relative FcgRIIIaV-binding Activity [1]: 0.006; Relative FcgRIa-binding Activity [2]: 0.002; Relative FcgRIIb-binding Activity [3]: 0.6; Relative FcgRIIaH-binding Activity [4]: 0.006; Relative FcgRIIaR-binding Activity [5]: 0.03; Kd [6]: 160 nM; Kd [7]: 3800 nM; Kd [8]: 39000 nM

B8: IL6R-P784/IL6R-L (antibody, human IgG1, kappa)
heavy: QVQLQESGPGLVKPSETLSLTCAVSGHSISHDHAWSWVRQPPGEGLEWIGFISYSGITNYNPSLQGRVTISRDNSKNTLYLQMNSLRAEDTAVYYCARSLARTTAMDYWGEGTLVTVSSASTKGPSVFPLAPSSKSTSGGTAALGCLVKDYFPEPVTVSWNSGALTSGVHTFPAVLQSSGLYSLSSVVTVPSSSLGTQTYICNVNHKPSNTKVDKKVEPKSCDKTHTCPPCPAPDLLGDDSVFLFPPKPKDTLMISRTPEVTCVVVDVSHEDPEVKFNWYVDGVEVHNAKTKPREEQYNSTYRVVSVLTVLHQDWLNGKEYKCKVSNKGLPSSIEKTISKAKGQPREPQVYTLPPSRDELTKNQVSLTCLVKGFYPSDIAVEWESNGQPENNYKTTPPVLDSDGSFFLYSKLTVDKSRWQQGNVFSCSVMHEALHNHYTQKSLSLSP
light: not shown
Q: For B8, which “Relative FcgRIIIaV-binding Activity” value [1] is on record?
A: Its value is 0.01.

Q: And the “Relative FcgRIa-binding Activity” value [2]?
A: Its value is 0.004.

Q: And the “Relative FcgRIIb-binding Activity” value [3]?
A: Its value is 1.

Q: What about the “Relative FcgRIIaH-binding Activity” value [4] of the same binder?
A: Its value is 0.007.

Q: And the “Relative FcgRIIaR-binding Activity” value [5]?
A: Its value is 0.05.

Q: And the Kd [6]?
A: Its Kd is 88 nM.

Q: And the Kd [7]?
A: Its Kd is 2200 nM.

Q: And the Kd [8]?
A: Its Kd is 21000 nM.
